Experimental data taken from publication PMC2877719.

Tests used:
[1] = target: full-length hEAG1 labeled with Cerulean (human) (UniProt O95259); test: FRET or BRET; acceptor photobleaching FRET in co-transfected HEK-293 cells; Cerulean on hEAG1 (donor), YFP on CaM (acceptor); 1 uM ionomycin in Ca2+- and Mg2+-free Ringer solution with 1 mM EGTA (-Ca2+), 10 min at 37 C, then fixed with 4% formaldehyde
[2] = target: full-length hEAG1 with mutated BD-C2 (F714S, F717S) labeled with Cerulean (human) (UniProt O95259); test: as above
[3] = target: full-length hEAG1 labeled with Cerulean (human) (UniProt O95259); test: FRET or BRET; acceptor photobleaching FRET in co-transfected HEK-293 cells; Cerulean on hEAG1 (donor), YFP on CaM (acceptor); 1 uM ionomycin in Ringer solution with 1.8 mM CaCl2 (+Ca2+), 10 min at 37 C, then fixed with 4% formaldehyde
[4] = target: full-length hEAG1 mutated in BD-N (F151S, A152S) labeled with Cerulean (human) (UniProt O95259); test: as above
[5] = target: C-terminus of hEAG1 (M478-S962) labeled with Cerulean (human) (UniProt O95259); test: as above
[6] = target: full-length hEAG1 with mutated BD-C2 (F714S, F717S) labeled with Cerulean (human) (UniProt O95259); test: as above

Chain of full-length hEAG1 with mutated BD-C2 (F714S, F717S) labeled with Cerulean (human) (O95259 other isoform, or with tags, fused parts or gaps F714S | F717S | F714S F717S): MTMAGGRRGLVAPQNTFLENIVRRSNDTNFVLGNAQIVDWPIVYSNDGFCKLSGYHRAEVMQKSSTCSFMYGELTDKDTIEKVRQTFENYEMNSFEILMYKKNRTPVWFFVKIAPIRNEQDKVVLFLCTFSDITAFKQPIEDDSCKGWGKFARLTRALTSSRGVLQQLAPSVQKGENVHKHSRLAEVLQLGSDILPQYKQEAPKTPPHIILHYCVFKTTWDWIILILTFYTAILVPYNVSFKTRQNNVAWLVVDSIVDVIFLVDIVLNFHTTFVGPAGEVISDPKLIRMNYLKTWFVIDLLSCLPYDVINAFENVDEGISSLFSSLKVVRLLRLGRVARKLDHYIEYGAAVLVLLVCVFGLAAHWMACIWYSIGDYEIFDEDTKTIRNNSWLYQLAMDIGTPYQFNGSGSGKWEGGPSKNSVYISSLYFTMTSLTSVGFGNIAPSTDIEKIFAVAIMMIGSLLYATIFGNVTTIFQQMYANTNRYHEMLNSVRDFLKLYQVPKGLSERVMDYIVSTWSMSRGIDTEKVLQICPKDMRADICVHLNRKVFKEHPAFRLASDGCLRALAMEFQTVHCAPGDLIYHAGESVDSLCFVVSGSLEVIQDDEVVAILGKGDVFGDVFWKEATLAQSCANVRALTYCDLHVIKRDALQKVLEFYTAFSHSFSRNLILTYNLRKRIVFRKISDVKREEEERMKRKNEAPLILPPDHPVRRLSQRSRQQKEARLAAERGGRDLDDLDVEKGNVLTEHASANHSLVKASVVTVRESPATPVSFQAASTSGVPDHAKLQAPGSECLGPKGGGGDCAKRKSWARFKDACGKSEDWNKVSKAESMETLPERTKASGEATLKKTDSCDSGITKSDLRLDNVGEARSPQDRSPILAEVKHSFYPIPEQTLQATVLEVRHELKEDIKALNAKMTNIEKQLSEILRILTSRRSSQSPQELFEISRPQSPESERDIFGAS
Chain of full-length hEAG1 labeled with Cerulean (human) (O95259 other isoform, or with tags, fused parts or gaps): as the sequence (O95259 other isoform, or with tags, fused parts or gaps F714S | F717S | F714S F717S) above, with S714F, S717F counted along it
Chain of full-length hEAG1 mutated in BD-N (F151S, A152S) labeled with Cerulean (human) (O95259 other isoform, or with tags, fused parts or gaps F151S | A152S | F151S A152S): as the sequence (O95259 other isoform, or with tags, fused parts or gaps F714S | F717S | F714S F717S) above, with F151S, A152S, S714F, S717F counted along it
Chain of C-terminus of hEAG1 (M478-S962) labeled with Cerulean (human) (O95259 505-989): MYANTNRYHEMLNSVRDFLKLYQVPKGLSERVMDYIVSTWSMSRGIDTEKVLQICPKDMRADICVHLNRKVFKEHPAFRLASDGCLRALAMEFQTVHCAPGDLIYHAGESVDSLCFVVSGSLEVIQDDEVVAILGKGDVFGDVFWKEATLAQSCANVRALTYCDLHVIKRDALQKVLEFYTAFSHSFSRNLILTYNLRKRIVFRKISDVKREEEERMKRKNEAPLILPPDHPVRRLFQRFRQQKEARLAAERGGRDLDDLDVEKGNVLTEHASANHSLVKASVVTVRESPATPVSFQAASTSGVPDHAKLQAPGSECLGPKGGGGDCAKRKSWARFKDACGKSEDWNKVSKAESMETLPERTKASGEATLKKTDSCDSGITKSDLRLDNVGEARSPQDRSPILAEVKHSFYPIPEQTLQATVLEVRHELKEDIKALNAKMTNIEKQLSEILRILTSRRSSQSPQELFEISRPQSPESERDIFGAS

N-terminally YFP-labeled calmodulin (rat calmodulin II) (from UniProt P0DP30 1-149) (natural protein)
FRET efficiency [1]: 10.1% | FRET efficiency [2]: 11.5% | FRET efficiency [3]: 17% | FRET efficiency [4]: 9.8% | mean FRET efficiency [5]: 9.5% | FRET efficiency [6]: 8.7%
